Measured values: PMC4432651, “Dynamic interplay between catalytic and lectin domains of GalNAc-transferases modulates protein O-glycosylation” (Nature Communications, 2015)
Where no end group is shown, it is not given here.

How the values were obtained:
[1] = target: the molecule itself; experiment: SAXS; solution scattering with ensemble analysis (EOM), monomer and dimer pools; enzyme without ligands (2.5, 5.0 and 10.0 mg/ml) or with UDP or UDP-GalNAc
[2] = target: T1, polypeptide N-acetylgalactosaminyltransferase 2 (GalNAc-T2), K75-Q571 (human, UniProt Q10471 75-571); experiment: other fluorescence titration; tryptophan fluorescence quenching of GalNAc-T2 (1 µM) by peptides at 1-500 µM; 25 mM Tris, 150 mM NaCl, pH 7.5, 25 °C; with 400 µM UDP and 1 mM MnCl2; single binding site model; conditions: both partners purified
T1 construct: GalNAc-T2 (polypeptide N-acetylgalactosaminyltransferase 2), residues K75-Q571: catalytic domain, flexible linker and lectin domain; Theoretical MW 56.7 kDa (D1:p10); source: expression plasmid pPICZαAgalnact2 (K75-Q571)
T1 sequence (Q10471 75-571): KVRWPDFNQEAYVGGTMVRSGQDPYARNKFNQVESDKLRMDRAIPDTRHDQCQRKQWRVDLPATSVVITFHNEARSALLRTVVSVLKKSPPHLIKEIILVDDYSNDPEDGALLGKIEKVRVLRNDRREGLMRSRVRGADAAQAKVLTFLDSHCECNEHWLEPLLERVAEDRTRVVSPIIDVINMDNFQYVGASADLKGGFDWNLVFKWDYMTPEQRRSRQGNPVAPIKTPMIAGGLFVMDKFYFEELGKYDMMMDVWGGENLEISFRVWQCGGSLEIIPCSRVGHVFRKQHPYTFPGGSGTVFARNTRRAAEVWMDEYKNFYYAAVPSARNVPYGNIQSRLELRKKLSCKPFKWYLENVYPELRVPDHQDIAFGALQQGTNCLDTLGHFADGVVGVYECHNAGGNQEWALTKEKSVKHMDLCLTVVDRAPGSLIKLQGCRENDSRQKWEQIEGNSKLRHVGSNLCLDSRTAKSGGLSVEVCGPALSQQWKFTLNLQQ

[3] = target: T1, polypeptide …; experiment: other fluorescence titration; tryptophan fluorescence quenching of GalNAc-T2 (1 µM) by peptides at 1-500 µM; 25 mM Tris, 150 mM NaCl, pH 7.5, 25 °C; no UDP/Mn2+; single binding site model; conditions: both partners purified

Binder	stoichiometry N [1]	Kd [2] [µM]	Kd [3] [µM]
polypeptide N-acetylgalactosaminyltransferase 2 (GalNAc-T2), K75-Q571 (enzyme, GalNAc-T2, residues K75-Q571, catalytic domain, flexible linker and lectin domain; Monomers and dimers coexist in solution by SAXS; also called wild-type (WT) enzyme) not shown	2	–	–
GTTPSPVPTTSTT(GalNAc)SA (Made on Rink amide resin, so the C-terminus is probably an amide (surmised); source: synthetic peptide (Fmoc solid-phase synthesis on Rink Amide MBHA resin, HPLC purified)) [MUC5AC-13 glycopeptide]	–	5 ± 1	8 ± 3
GTTPSPVPTTSTTSA (peptide named after mucin MUC5AC; Made on Rink amide resin, so the C-terminus is probably an amide (surmised); source: synthetic peptide (Fmoc solid-phase synthesis on Rink Amide MBHA resin, HPLC purified)) [MUC5AC peptide (naked)]	–	31 ± 16	7 ± 3
GTT(GalNAc)PSPVPTTSTT(GalNAc)SA (not fully specified (C-terminus), Made on Rink amide resin, so the C-terminus is probably an amide (surmised); source: synthetic peptide (Fmoc solid-phase synthesis on Rink Amide MBHA resin, HPLC purified)) [MUC5AC-3-13 diglycosylated peptide]	–	17 ± 9	11 ± 4
